Experimental data taken from PMC5862715.
One block for each substance: values may come before it.

Assays:
Assay in all cases: SDS-PAGE without pre-heating, with zymogram; crude enzymes (high concentration of (NH4)2SO4) in loading buffer with 10% SDS, not pre-heated, 10% polyacrylamide gel; compared with samples heated at 100 °C for 5 min; dimer band active on xylan plate
[1] = target: Xyn10AdC, CBM1 removed Xyn10A (Aspergillus fumigatus Z5)
[2] = target: Xyn10A, GH10 family xylanase from Aspergillus fumigatus Z5 (Aspergillus fumigatus Z5)
[3] = target: Xyn10AdLC, CBM1 and linker region removed Xyn10A (Aspergillus fumigatus Z5)

stoichiometry N [1]: 2
Substance: Xyn10AdC, CBM1 removed Xyn10A (domain or fragment)

stoichiometry N [2]: 2
Substance: Xyn10A, GH10 family xylanase from Aspergillus fumigatus Z5 (enzyme)

stoichiometry N [3]: 2
Substance: Xyn10AdLC, CBM1 and linker region removed Xyn10A (domain or fragment)
